# Laboratory results taken from patent publication US20030109454A1 (ADHEREX TECHNOLOGIES, published 2003).
# B1: N-Ac-CIDPVNC-NH2 (peptide)
# peptide: Ac-CIDPVNC-NH2
# modifications: not fully specified (bridges); printed as N-Ac-CIDPVNC-NH2; also: cyclic peptide, linkage not given here
# B2: N-Ac-CINPISC-NH2 (peptide)
# peptide: Ac-CINPISC-NH2
# modifications: not fully specified (bridges); printed as N-Ac-CINPISC-NH2; also: cyclic peptide, linkage not given here
# Columns and labels:
# Test in all cases: cell-based or functional assay
# [1] = target: N-cadherin expressed on transfected 3T3 cells
# [2] = target: N-cadherin expressed on transfected 3T3 cells; remark: listed apart in the source
# [3] = target: N-cadherin expressed on transfected 3T3 cells; remark: listed apart in the source
# [4] = target: N-cadherin expressed on transfected 3T3 cells; remark: listed apart in the source
Binder,"percent inhibition of neurite outgrowth, peptide at 100 µg/ml [3]","percent inhibition of neurite outgrowth, peptide at 250 µg/ml [3]",further results
Ac-INAISGQ-NH2 [N-Ac-INAISGQ-NH2],,,"percent inhibition of neurite outgrowth on 3T3 cells expressing N-cadherin, peptide at 100 µg/ml [1]: 37.2%"
"Ac-CINPIC-NH2 (not fully specified (bridges); also: cyclic peptide, linkage not given here) [N-Ac-CINPIC-NH2]",,,EC50 of inhibition of neurite outgrowth on 3T3 cells expressing N-cadherin [2]: 38.2 µM
H-LKIDAVNGQI-OH [H-LKIDAVNGQI-OH],104%,,
Ac-NLKIDPVNGQI-NH2 [N-Ac-NLKIDPVNGQI-NH2],67.8%,86.8%,"percent inhibition of neurite outgrowth, peptide at 33 µg/ml [3]: 25.6%"
B1,75.8%,96.4%,"percent inhibition of neurite outgrowth, peptide at 33 µg/ml [3]: 40.6%"
Ac-IDPVNGQ-NH2 [N-Ac-IDPVNGQ-NH2],56.4%,85.6%,"percent inhibition of neurite outgrowth, peptide at 33 µg/ml [3]: 34.3%"
Ac-WLKADAVNGQI-NH2 [N-Ac-WLKADAVNGQI-NH2],10.5%,19.7%,
"Ac-CINPC-NH2 (also: cyclic peptide, ring type not given here) [N-Ac-CINPC-NH2]",,,EC50 of inhibition of neurite outgrowth on 3T3 cells expressing N-cadherin [2]: 14.3 µM
H-LKIDPVNGQI-OH [H-LKIDPVNGQI-OH],46%,,
H-WLKIDPVNGQI-OH [H-WLKIDPVNGQI-OH],76.1%,,
Ac-LNPISGQ-NH2 [N-Ac-LNPISGQ-NH2],,,"percent inhibition of neurite outgrowth on 3T3 cells expressing N-cadherin, peptide at 100 µg/ml [1]: 19.2%"
Ac-INPASGQ-NH2 [N-Ac-INPASGQ-NH2],,,"percent inhibition of neurite outgrowth on 3T3 cells expressing N-cadherin, peptide at 100 µg/ml [1]: 7.2%"
B2,,,EC50 of inhibition of neurite outgrowth on 3T3 cells expressing N-cadherin [2]: 38.1 µM
Ac-INPISGQ-NH2 [N-Ac-INPISGQ-NH2],,,"percent inhibition of neurite outgrowth on 3T3 cells expressing N-cadherin, peptide at 100 µg/ml [1]: 94.5%"
Ac-WLKIDPVNGQI-NH2 [N-Ac-WLKIDPVNGQI-NH2],66.9%,83.5%,"EC50 of inhibition of neurite outgrowth [4]: 46 µM; percent inhibition of neurite outgrowth, peptide at 33 µg/ml [3]: 19.8%"
H-LKIDPANGQI-OH [H-LKIDPANGQI-OH],56.8%,,
Ac-WLKADPVNGQI-NH2 [N-Ac-WLKADPVNGQI-NH2],22.2%,54.7%,
Ac-WLKIDAVNGQI-NH2 [N-Ac-WLKIDAVNGQI-NH2],12.4%,52.3%,
